The chains are these.
B2: IL-11Rα (recombinant, extracellular domain fused to the Fc region of human IgG) (Fc fusion, UniProt Q14626 24-370, looked up)
chain: SPCPQAWGPPGVQYGQPGRSVKLCCPGVTAGDPVSWFRDGEPKLLQGPDSGLGHELVLAQADSTDEGTYICQTLDGALGGTVTLQLGYPPARPVVSCQAADYENFSCTWSPSQISGLPTRYLTSYRKKTVLGADSQRRSPSTGPWPCPQDPLGAARCVVHGAEFWSQYRINVTEVNPLGASTRLLDVSLQSILRPDPPQGLRVESVPGYPRRLRASWTYPASWPCQPHFLLKFRLQYRPAQHPAWSTVEPAGLEEVITDAVAGLPHAVRVSARDFLDAGTWSTWSPEAWGTPSTGTIPKEIPAWGQLHTQPEVEPQVDSPAPPRPSLQPHPRLLDHRDSVEQVAVLA
notes: human interleukin-11 receptor alpha, extracellular domain; The methods of the NMR and of the proliferation assay name only 'IL-11Rα' or 'human sIL-11Rα'; also called IL-11 receptor α; sIL-11Rα; source: bought: R&D Systems

The target of assay [1] is B2. Description: NMR titration; 1D-1H and 2D-1H TOCSY/NOESY at 600 MHz; IL-11Rα 6 µM, peptide up to 400 µM (molar excess ∼16-, 33- and 66-fold); 50 mM sodium phosphate, 5 mM sodium azide, 10% D2O; 25°C. The settings on record: both partners purified.
Assay [2] has as its target T1, GST-IL-11 G116A (human, UniProt P20809 22-199, G116A).
T1 construct: human interleukin-11, open reading frame in pGEX4T-1, alanine mutant made on the GST-IL-11 plasmid; As m7 with the mutation; also called Gly^116 mutant; source: E. coli BL21, purified from inclusion bodies (solubilized in 6 M guanidine-HCl)
T1 sequence (looked up): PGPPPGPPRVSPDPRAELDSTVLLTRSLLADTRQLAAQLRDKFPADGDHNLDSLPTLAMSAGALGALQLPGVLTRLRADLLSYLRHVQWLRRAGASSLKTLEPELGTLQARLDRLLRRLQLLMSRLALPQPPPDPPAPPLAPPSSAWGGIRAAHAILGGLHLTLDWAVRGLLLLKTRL
Description: ELISA; GST fusion proteins coated overnight on 96-well plates at 5 µg/ml, blocked with 3% BSA in PBS; IL-11Rα (1 µg/ml) incubated for 2 h; detected with anti-human Fc HRP-conjugated antibody. The settings on record: both partners purified.

The target of assay [3] is T2, GST-IL-11 S117A (human, UniProt P20809 22-199, S117A).
T2 construct: human interleukin-11, open reading frame in pGEX4T-1, alanine mutant made on the GST-IL-11 plasmid; As m7 with the mutation; also called Ser^117 mutant; source: E. coli BL21, purified from inclusion bodies (solubilized in 6 M guanidine-HCl)
T2 sequence (looked up): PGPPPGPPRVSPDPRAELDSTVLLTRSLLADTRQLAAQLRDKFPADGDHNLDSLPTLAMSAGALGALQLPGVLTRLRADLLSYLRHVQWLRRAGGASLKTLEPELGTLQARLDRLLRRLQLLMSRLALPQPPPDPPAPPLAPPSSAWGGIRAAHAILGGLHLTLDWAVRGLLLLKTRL
Described as above. The settings on record: both partners purified.

Assay [4] has as its target T3, GST-IL-11 G115A (human, UniProt P20809 22-199, G115A).
T3 construct: human interleukin-11, open reading frame in pGEX4T-1, alanine mutant made on the GST-IL-11 plasmid; As m7 with the mutation; also called Gly^115 mutant; source: E. coli BL21, purified from inclusion bodies (solubilized in 6 M guanidine-HCl)
T3 sequence (looked up): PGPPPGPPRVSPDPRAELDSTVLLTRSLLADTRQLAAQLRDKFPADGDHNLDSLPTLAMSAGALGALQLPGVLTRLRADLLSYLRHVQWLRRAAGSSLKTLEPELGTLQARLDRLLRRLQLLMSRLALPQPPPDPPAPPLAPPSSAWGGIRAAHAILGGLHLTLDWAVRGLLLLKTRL
The assay is described as above. The settings on record: both partners purified.

In assay [5] the target is T4, GST-IL-11 R112A (human, UniProt P20809 22-199, R112A).
T4 construct: human interleukin-11, open reading frame in pGEX4T-1, alanine mutant made on the GST-IL-11 plasmid; As m7 with the mutation; also called Arg^112 mutant; source: E. coli BL21, purified from inclusion bodies (solubilized in 6 M guanidine-HCl)
T4 sequence (looked up): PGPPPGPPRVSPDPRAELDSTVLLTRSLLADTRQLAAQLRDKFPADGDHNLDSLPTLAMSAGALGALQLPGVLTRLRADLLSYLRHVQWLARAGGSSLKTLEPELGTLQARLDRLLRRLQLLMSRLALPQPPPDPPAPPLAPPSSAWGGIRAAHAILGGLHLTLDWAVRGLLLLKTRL
Described as above. The settings on record: both partners purified.

Assay [6] deals with GST-IL-11 R113A (human) (UniProt P20809). The description is as above.
Assay [7] concerns the target B2. As to the kind of experiment: phage binding assay; alanine-scanning phage on immobilized IL-11Rα, done as a1; result given as grade of the ratio binding to IL-11Rα / binding to BSA; in duplicate, repeated at least four times. Particulars: one partner purified.

Bridges are numbered along the chain shown (N, C = ends). Where no end group is shown, it is not given here.

B1: synthetic cyclic peptide CGRRAGGSC (peptide)
peptide: CGRRAGGSC
modifications: disulfide 1-9
notes: peptide selected from a combinatorial phage library in a cancer patient; RRAGGS corresponds to residues 112-117 of human IL-11; also called IL-11-like peptide; source: synthetic peptide, synthesized and cyclized at AnaSpec
With B1, in assay [1], the binding result is “binds”.
Consider B2, for which the “% binding inhibition relative to wild-type IL-11” value in assay [2] was found to be 29%; in assay [3] it was 86%; in assay [4], 71%; in assay [5] it was 43%; in assay [6] it was 86%.

B3: CGARAGGSC phage (Arg^3 to Ala mutant of the … phage) (peptide)
peptide: CGARAGGSC
notes: source: phage display, cloned into SfiI-digested fUSE5 vector
For the molecule B3, the “% reduction of binding relative to the … phage” value in assay [7] is greater than 70%.

B4: CGRRAAGSC phage (Gly^6 to Ala mutant of the … phage) (peptide)
peptide: CGRRAAGSC
notes: as for B3
B4: the “% reduction of binding relative to the … phage” value in assay [7] was greater than 70%.

The values are drawn from publication PMC2565473, “A Ligand Peptide Motif Selected from a Cancer Patient Is a Receptor-Interacting Site within Human Interleukin-11” (PLoS ONE, 2008).
